According to the supplement of paper PMC7125110:
± gives the standard error. Variants at the floor of the assay were thinned out.

B1: glmS ribozyme (parent)
chain: AUAAAAGCGCCAGAACUACAGAAAUGUAGUUGACGAGGAGGAGGUUUAUCGAAUUUUCGGCGGAUGCCUCCAAA

What was measured:
Conditions in all cases: with glucosamine-6-phosphate
glucosamine-6-phosphate [1] = variants of: B1; assay: self-cleavage kobs at 40 uM GlcN6P; higher = faster cleavage; RNA array
In short: (§1)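 kobs was derived by fitting per-tile medians to one- or two-exponential decays after normalising signals to baseline and to non-cleaving reference variants. Those signals came from barcoded ribozyme variants transcribed in situ by E. coli RNA polymerase on sequenced MiSeq chips, followed through a hybridised Cy3 probe at 37 °C and imaged over ~14 h. Glucosamine-6-phosphate (40 μM to 10 mM) in HEPES/KCl/Mg(OAc)2 buffer was flowed in. Weighted Michaelis–Menten fits across concentrations then gave kcat and KM.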

glucosamine-6-phosphate [2] = variants of: B1; assay: self-cleavage kobs at 160 uM GlcN6P; higher = faster cleavage; RNA array
In short: as §1

glucosamine-6-phosphate [3] = variants of: B1; assay: self-cleavage kobs at 640 uM GlcN6P; higher = faster cleavage; RNA array
In short: as §1

glucosamine-6-phosphate [4] = variants of: B1; assay: self-cleavage kobs at 2500 uM GlcN6P; higher = faster cleavage; RNA array
In short: as §1

glucosamine-6-phosphate [5] = variants of: B1; assay: self-cleavage kobs at 10000 uM GlcN6P; higher = faster cleavage; RNA array
In short: as §1

Row | Variant | self-cleavage kobs at 40 uM GlcN6P (glucosamine-6-phosphate [1]) [s⁻¹] | self-cleavage kobs at 160 uM GlcN6P (glucosamine-6-phosphate [2]) [s⁻¹] | self-cleavage kobs at 640 uM GlcN6P (glucosamine-6-phosphate [3]) [s⁻¹] | self-cleavage kobs at 2500 uM GlcN6P (glucosamine-6-phosphate [4]) [s⁻¹] | self-cleavage kobs at 10000 uM GlcN6P (glucosamine-6-phosphate [5]) [s⁻¹]
1 | AUAAAAGCGCCAGGACUACAGAAAUGUAGUUGACGAGGAGUAGGAUUAUCGAAUUUUCGGCGGAUGCCUUCAAA | 0.000293 ± 5.4e-05 | 0.00043 ± 0.00013 | 0.000588 ± 0.00015 | 0.00191 ± 0.00054 | 0.000993 ± 0.00019
2 | AUAAAAGCGCCAGAACUACAGAAAUGUAGUUGAGGACGAGGAGGUUUAUCGAAUUUUCGGUGGAAGCCUCCAAA | < 1e-05 | – | – | – | < 1e-05
3 | AUAAAAGCGUCAGAACUACAGAAAUGUAGUUGACGAGGAGGACGUUUAUCGAAUUUUCGGCGGAUGCCUCCAAA | < 1e-05 | < 1e-05 | < 1e-05 | < 1e-05 | < 1e-05
4 | AUAAAAGGGCCAGAACUACAGAAAUGUAGUUGACGAGGAGGAGGUUUAUCGAAUUCUCGGCCGAUGCCUCCAAA | < 1e-05 | – | < 1e-05 | < 1e-05 | < 1e-05
5 | AUAAAAGCGCCAGAACUACAGAAAUGUAGUUGACGAGGAGGAGGUUUAUCGAAUGAUCGGCGGAUGCCUCCAAA | 0.000287 ± 6.6e-05 | – | 0.00208 ± 0.00047 | 0.00834 ± 0.0016 | 0.0131 ± 0.0051
6 | AUAAAAGGGCCAGGACUACAGAAAUGUAGUCGACGAGGAGGAGGUUUAUCGAAUUUUCGGCGGAUGCCUCCAAA | < 1e-05 | – | – | – | –
7 | AUAAAAGCGCCAGGUCUACAGAAAUGUAGUCGACGAGGAGGAGGUUUAUCGAAUUUUCGGCGGAUGCCUCCAAA | 0.000793 ± 0.00021 | – | – | – | 0.0212 ± 0.0057
8 | AUAAAAGCGCCAGAACUACAGAAAUGUAGUUGACGAGGAGGAGGUUUAUCGAAUUUUCGGCGAAGUCCUCCAAA | < 1e-05 | – | – | < 1e-05 | < 1e-05
9 | AUAAAACCGCCAGAACUACAGAAAUGUAGUUGACGAGGCGGAGGUUUAUCGAAUUUUCGGCGGAUGCCUCCAAA | < 1e-05 | < 1e-05 | – | – | < 1e-05
10 | AUAAAAGCGCCAGAACUACAGAAAUGUAGUUGACGAGGAUGAGGGUUAUCGAAUUUUCGGCGGAUGUCUCCAAA | < 1e-05 | < 1e-05 | – | – | 5.49e-05 ± 1.2e-05
11 | AUAAAAGCUCCAGAACUACAGAAAUGUAGUUGACGAGGAGGAGGUUUAUCGAUUUUUCGGCGGAUGCCUCCAAA | < 1e-05 | < 1e-05 | < 1e-05 | – | < 1e-05
12 | AUAAAAACGCCAGAACUACAGAAAUGUAGUCGACGAGGAGGAGGUUUUUCGAAUUUUCGGCGGAUGCCUCCAAA | < 1e-05 | – | – | – | –
13 | AUAAAAGCGCCAGAACUACAGAAAUGUAGUUGACGAGGAGGAAGUUUAUCGAAUUUUCGGUGGAUGCCUCAAAA | < 1e-05 | – | – | – | –
14 | AUAAAAGCGCCAGAACUACAGAAAUGUAGUUGACGAGGAGGAGGUUUAUCAAAUUUACGGCGGAUGCCUCCAAA | < 1e-05 | – | – | – | < 1e-05
